Biological target: CH848-d949 DE3 design SOSIP Env (HIV-1)
Experiment: SPR

B1: DH270 lineage intermediate I5.6 Fab (Fab, V domains shown)
VH: QVQLVQSGAEVKKPGASVKVSCKASGYTFTDYYIHWVRQAPGQGLEWMGWINPNTGRTNSAQKFQGRVTMTRDTSISTAYMELSRLRSDDTAVYYCARGGWIGLYYDSSGYPNFDYWGQGTLVTVSS
VL: QSALTQPASVSGSPGQSITISCTGTSYDVGSYNLVSWYQQHPGKAPKLMIYEVSKRPSGVSNRFSGSKSGNTASLTISGLQAEDEADYYCCSYAGSSTVVFGGGTKLTVL
fold change in association rate (ka) against unmutated CH848-d949: 45 fold

Reference: publication PMC10760096
